In patent publication US20240382610A1 (TALLAC THERAPEUTICS, published 2024):
Where a chain is given by its changes, count along the chain named.

T1: Human nectin-4 ECD-6His (TNT-175) (human, UniProt Q96NY8 32-349)
T1 construct: the entry holds the extracellular domain with the C-terminal 6His tag
T1 sequence: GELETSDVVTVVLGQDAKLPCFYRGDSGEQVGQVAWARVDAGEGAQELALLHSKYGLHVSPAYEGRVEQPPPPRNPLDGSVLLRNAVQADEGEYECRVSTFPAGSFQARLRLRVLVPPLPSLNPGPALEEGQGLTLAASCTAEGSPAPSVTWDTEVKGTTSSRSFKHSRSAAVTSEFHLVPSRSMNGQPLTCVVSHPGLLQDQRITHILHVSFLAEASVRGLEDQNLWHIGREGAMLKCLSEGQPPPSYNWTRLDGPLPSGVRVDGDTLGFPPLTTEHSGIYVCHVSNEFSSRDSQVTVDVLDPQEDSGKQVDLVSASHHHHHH

T2: Mouse nectin-4 ECD-6His (TNT-250) (mouse, UniProt Q8R007 31-347)
T2 construct: entry includes the 6His tag; also called mouse nectin-4-LCD
T2 sequence: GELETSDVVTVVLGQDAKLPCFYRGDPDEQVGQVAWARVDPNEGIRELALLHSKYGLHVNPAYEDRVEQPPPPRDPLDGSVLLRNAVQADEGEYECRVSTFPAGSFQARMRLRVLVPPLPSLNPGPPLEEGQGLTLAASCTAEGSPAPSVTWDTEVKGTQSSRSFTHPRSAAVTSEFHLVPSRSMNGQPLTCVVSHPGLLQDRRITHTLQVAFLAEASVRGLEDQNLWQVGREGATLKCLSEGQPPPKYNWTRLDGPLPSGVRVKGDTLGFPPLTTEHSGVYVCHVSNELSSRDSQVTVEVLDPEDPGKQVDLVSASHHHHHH

T3: Human nectin-4-IgV-6His (TNT-252) (human, UniProt Q96NY8 32-147)
T3 construct: entry includes the 6His tag
T3 sequence: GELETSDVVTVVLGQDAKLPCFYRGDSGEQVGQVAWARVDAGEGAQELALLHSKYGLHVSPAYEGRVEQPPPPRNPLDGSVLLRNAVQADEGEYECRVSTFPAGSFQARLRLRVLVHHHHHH

T4: Cyno nectin-4 ECD-6His (TNT-255) (cynomolgus, UniProt Q96NY8 32-349 (human entry))
T4 construct: entry includes the 6His tag
T4 chain: T1 sequence with V39A, I230V

B1: TNT-205 (antibody, human IgG1, kappa)
heavy: not shown
light: DIVMTQSPSSLSASVGDRVTITCRASQGISNYLAWYQQKPGKVPKLLIYAASTLQSGVPSRFSGSGSGTDFTLTISSLQPEDVATYYCQKYNSAPYTFGQGTKVEIKRTVAAPSVFIFPPSDEQLKSGTASVVCLLNNFYPREAKVQWKVDNALQSGNSQESVTEQDSKDSTYSLSSTLTLSKADYEKHKVYACEVTHQGLSSPVTKSFNRGEC
B2: TNT-211 (antibody, human IgG1, kappa)
heavy: not shown
light: B1 light with D70E, T74A, V83L, K90Q, Y91L, A94H, Y96I, K103R, V104L
B3: TNT-317 (antibody, V domains shown)
VH: QVQLQESGPGLVKPSETLSLTCTVSGGSISSYFWSWIRQPPGKGLEWIGYIYYSGNTNYNPSLKSRVTISVDMSKNQFSLRLSSVTAADTAVYYCARDFHHYDGSAYRWYFDLWGRGTLVTVSS
VL: QSVLTQPPSVSAAPGQKVTISCSGSSSNIGNNYVSWYQQFPGTAPKLLIYDNNKRPSGIPDRFSGSKSGTSATLGITGLQTGDEADYYCGTWDSSLNAGWVFGGGTKLTVLG
notes: human IgG1
B4: TNT-318 (antibody, V domains shown)
VH: QVQLQESGPGLVKPSETLSLTCTVSGGSISSNYWTWIRQSAGKGLEWIGRIHISESTNYNPSLKSRVTMSVDTSKNQFSLKLSSVTAADTAVYFCAREGEWKVLGAFDIWGQGTMVTVSS
VL: QTVLTQPSSLSASPGASASLTCTLRSGINVGSYRIYWYQQKPGSPPQFLLRYKSDSDKQQGSGVPSRFSGSKDDSANAGILLISGLQSEDEADYYCMIWHSSASVFGTGTKVTVLG
notes: human IgG1
B5: TNT-320 (antibody, V domains shown)
VH: QVQLVQSGAEVKKPGASVKVSCKASGYTFTVYYIHWVRQAPGQGLEWMGWISPNSGGTNYAQKFQGRVTMTRDTSISTAYMELTRLRSDDTAIFYCARQTVVTPNWGFDYWGQGTLVTVSS
VL: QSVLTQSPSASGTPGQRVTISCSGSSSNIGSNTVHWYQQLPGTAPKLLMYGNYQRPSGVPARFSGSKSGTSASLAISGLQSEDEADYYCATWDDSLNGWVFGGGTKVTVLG
notes: human IgG1
B6: TNT-321 (antibody, V domains shown)
VH: QVQLQESGPGLVKPSETLSLTCTVSGGSISSYYWSWIRQPPGKGLEWIGYIYYSGNVNYNPSLKSRVTISVDASKNQFSLKLTSVTAADTAVYYCAIGGVGAQWDAFDIWGQGTMVTVSS
VL: DIQMTQSPSAMSASVGDRVTITCRASQGISNYLAWFQQKPGKVPKRLIYAASSLQSGVPSRFSGSGSGTEFTLTISSLQPEDFATYYCLQHSFYPLTFGPGTKVDIKR
notes: human IgG1
B7: TNT-322 (antibody, V domains shown)
VH: QVQLQESGPGLVKPSATLSLTCTVSGGSISSYYWNWIRQPPGKGLEWIGYIYYSGNTNYNPSLKSRVTISVDMSKNQFSLKLNSVTAADTAVYYCARSESYGYWFFYLWGRGTLVTVSS
VL: B3 VL with N97S, W100V
notes: human IgG1
B8: TNT-323 (antibody, V domains shown)
VH: QVQLQESGPGLVKPSETLSLTCTVSGGSISSYFWNWIRQPPGKGLEWIGYLYYIGTTNYNPSLKSRVTISVDTSKNQFSLKLNSVTAADTAVYYCARSGNYYNDAFDIWGQGTMVTVSS
VL: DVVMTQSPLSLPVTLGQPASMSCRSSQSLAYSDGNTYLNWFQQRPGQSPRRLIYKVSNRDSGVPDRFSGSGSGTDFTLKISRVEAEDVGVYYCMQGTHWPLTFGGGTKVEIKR
notes: human IgG1
B9: TNT-324 (antibody, V domains shown)
VH: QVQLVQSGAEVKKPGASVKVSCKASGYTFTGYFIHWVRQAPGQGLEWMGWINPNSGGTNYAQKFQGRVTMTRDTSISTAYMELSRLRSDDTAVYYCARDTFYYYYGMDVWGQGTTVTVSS
VL: QTVVTQEPSLTVSPGGTVTLTCASSTGAVTSGYYPNWFQQKPGQAPRALIYSTSNKHSWTPARFSGSLLGGKAALTLSGVQPEDEAEYYCLLYYDGAHLFGGGTKLTVLG
notes: human IgG1
B10: TNT-327 (antibody, V domains shown)
VH: QVQLQESGPGLVKPSETLSLTCTVSGGSISDYYWIWIRQPAGKGLEWIGRIYTTGGAKYNPSLKSRVTMSIDTSKNNFSLKLSSVTAADTAVYFCARDRNWEWNFDLWGRGTLVTVSS
VL: QSALTQPASVSGSPGQSITISCTGTTSDIGSYNLVSWYQQHPGKAPKLMIYEVSMSPSGVSDRFSGSKSGSTASLTISGLQAEDEADYYCSSYAGSSTVVFGGGTRLTVLG
notes: human IgG1
B11: TNT-328 (antibody, V domains shown)
VH: QVQLQESGPGLVKPSETLSLTCTVSGGSMSSYFWSWIRQPPERGLEWVGYMYYSGNTNYNPSLKSRVTTSIDTSKNQFSLKLTSVTAADTAVYYCARSGNFYWNFDLWGRGTLVTVSS
VL: QSVLTQPPSVSGAPGQRVTISCTGSSSNIGAGYNVHWYQQLPGTAPKVLISGNSNRPSGVPDRFSGSKSGTSASLAITGLQAEDEADYYCQSYDSSLSGSAVFGGGTKLTVLG
notes: human IgG1
B12: TNT-330 (antibody, V domains shown)
VH: EVQLVESGGGLVKPGGSLRLSCAVSGFTFSSYNMNWVRQAPGKGLEWVSSISISSSYIYYADSVKGRFTISRDNAKNSLYLQMNSLRAEDTAVYYCARDRGLDDAFDIWGQGTVVTVSS
VL: DIVMTQTPLSLPVTPGEPASISCRSSQSLLDSDDGNTYLDWYLQKPGQSPQLLIYTLSYRASGVPDRFSGSGSGTDFTLKVSRVEAEDVGVYYCMQRIEFPYTFGQGTKLEIKR
notes: human IgG1
B13: TNT-331 (antibody, V domains shown)
VH: QVHLQESGPGLVKPSETLSLTCTVSGGSIRSYYWSWIRQPAGKGLEWIGRIYTSGSTNYNPSLKSRVTMSVDTSKNRLSLKLSSVTAADTAVYYCAKENWGPSFDYWGQGTLVTVSS
VL: B3 VL with F40L, S94T, N97S, A98S, V101L
notes: human IgG1

Target: T1, Human nectin-4 ECD-6His (TNT-175)
Test: SPR Biacore 8K, mAb on protein A
Experimental: (§1) The running buffer was 10 mM HEPES, pH 7.4, 150 mM NaCl, 3 mM EDTA, 0.05% (v/v) Surfactant P20 (HBS-EP+). […] The nectin-4 analytes were injected in either single-cycle kinetics or multi-cycle kinetics mode at nominal starting concentrations of 300 nM or 900 nM with 3-fold serial dilutions. Association times were monitored for 120 s, and dissociation times were monitored 1800 s at 30 μL/min flow rate. The surfaces were regenerated with 10 mM glycine at pH1.7 or 75 mM phosphoric acid at pH1.6 for two pulses of 15 s at 30 μL/min flow rate.
(§2) The data were processed and analyzed with Biacore 8K Evaluation Software Version 3.0.12.15655 (Cytiva, Global Life Sciences Solutions USA LLC, Marlborough, MA). […] The responses from the nearest buffer blank injection were then subtracted from the reference subtracted data (2-1) to yield double-referenced data. These double-reference data were fit to a simple 1:1 Langmuir binding model with mass transport to determine the apparent association (ka) and dissociation rate constants (kd). The apparent equilibrium dissociation constant or affinity constant was then calculated based on their ratio as (KD=kd/ka).

Binder	Kd [nM]
B1	53.9
B2	24.3
B3	15.7
B4	260
B5	18.4
B6	14
B7	57.9
B8	9
B9	64.5
B10	3.63
B11	1.59
B12	16.4
B13	87.4

Target: T2, Mouse nectin-4 ECD-6His (TNT-250)
Test: SPR Biacore 8K, mAb on protein A
Experimental: as §1, §2

Binder	Kd [nM]	binding result
B1	820	
B2	68.4	
B3		no binding (tested: up to 300 or 900 nM analyte)
B4		no binding (tested: up to 300 or 900 nM analyte)
B5		no binding (tested: up to 300 or 900 nM analyte)
B6		no binding (tested: up to 300 or 900 nM analyte)
B7		no binding (tested: up to 300 or 900 nM analyte)
B8		no binding (tested: up to 300 or 900 nM analyte)
B9		no binding (tested: up to 300 or 900 nM analyte)
B10		no binding (tested: up to 300 or 900 nM analyte)
B11		no binding (tested: up to 300 or 900 nM analyte)
B12		no binding (tested: up to 300 or 900 nM analyte)
B13		no binding (tested: up to 300 or 900 nM analyte)

Target: T3, Human nectin-4-IgV-6His (TNT-252)
Test: SPR Biacore 8K, mAb on protein A
Experimental: as §1, §2

Binder	Kd [nM]	binding result
B1	75.3	
B2	24.3	
B3		no binding (tested: up to 300 or 900 nM analyte)
B4		no binding (tested: up to 300 or 900 nM analyte)
B5	9.91	
B6	11.6	
B7		no binding (tested: up to 300 or 900 nM analyte)
B8		no binding (tested: up to 300 or 900 nM analyte)
B9	30.7	
B10	1.64	
B11		no binding (tested: up to 300 or 900 nM analyte)
B12	7.3	
B13		no binding (tested: up to 300 or 900 nM analyte)

Target: T4, Cyno nectin-4 ECD-6His (TNT-255)
Test: SPR Biacore 8K, mAb on protein A
Experimental: as §1, §2

Binder	Kd [nM]
B1	727
B2	48.9
B3	18.3
B4	211
B5	35.9
B6	56
B7	51.5
B8	8.67
B9	24.4
B10	2.85
B11	1.78
B12	13.7
B13	32.8
